Values of other authors in paper PMC2854253.

Target: cTnI147-163 (Homo sapiens)
Experiment: NMR titration

Kd: 154 µM
Substance: cNTnC 1-89 (from UniProt P63316)
